According to patent US20040054131A1:

Molecular target: FGF receptor (FGFR) on Swiss 3T3 cells
Assay: cell-based or functional assay

Question: With basic FGF (ligand) as the substance, how does the EC50 of mitogenesis (BrdU incorporation) in Swiss 3T3 cells with 15 U/ml heparin read?
Answer: Its EC50 of mitogenesis (BrdU incorporation) in Swiss 3T3 cells with 15 U/ml heparin is 0.14 nM.
